The target of experiment [1] is T1, Cyno GUCY2C ECD (his-tagged cynomolgus monkey GUCY2C protein extracellular domain fusion protein) (cynomolgus monkey, UniProt P25092 24-430 (human entry)).
T1 construct: also called monkey GUCY2C-his; monkey GUCY2C-His
T1 chain: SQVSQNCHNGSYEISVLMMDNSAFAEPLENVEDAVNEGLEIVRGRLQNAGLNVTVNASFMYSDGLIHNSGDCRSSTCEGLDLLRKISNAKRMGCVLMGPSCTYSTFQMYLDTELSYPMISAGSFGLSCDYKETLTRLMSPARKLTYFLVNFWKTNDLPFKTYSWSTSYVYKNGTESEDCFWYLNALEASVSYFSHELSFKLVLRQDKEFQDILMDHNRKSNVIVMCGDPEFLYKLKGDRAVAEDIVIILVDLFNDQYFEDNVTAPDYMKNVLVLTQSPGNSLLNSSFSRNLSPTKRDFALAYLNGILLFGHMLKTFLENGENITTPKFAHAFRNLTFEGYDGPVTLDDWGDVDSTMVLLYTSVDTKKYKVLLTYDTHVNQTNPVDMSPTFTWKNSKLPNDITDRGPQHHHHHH
Put plainly: ELISA, plate coated with monkey GUCY2C-his, OD450. For orientation: An ELISA detects its analyte on a solid surface through an enzyme-linked reagent.

Experiment [2] addresses T2, human GUCY2C protein, full length, on cells (human, UniProt P25092 24-1073).
T2 construct: whole, on cells; also called endogenous tumor cells HT55
Briefly: FACS on 293T-hGUCY2C cells, MFI. As for the experimental part:
(§1) Then a complete medium was added to stop the digestion, and the cells were blown into a single cell suspension. After counting, the cells were centrifuged, and the cell pellet was resuspended to 2×10⁶ cells/mL in an FACS buffer (PBS+2% fetal bovine serum), and added to a 96-well FACS reaction plate at 100 μL/well. The plate was centrifuged, and the supernatant was discarded. An antibody sample to be tested (diluted in a 3-fold gradient from a starting concentration of 100 nM) was added at 50 μL/well and uniformly mixed with the cells, and the mixture was incubated at 4° C. for 1 h. […] The results were tested and analyzed by FACS (FACS Canto™, purchased from BD) after the plate was centrifuged and washed 3 times with a PBS buffer and resuspended with 100 μL of PBS. Data analysis was performed by software (FlowJo) to obtain the mean fluorescence intensity (MFI) of the cells. Then, analysis was performed by software (GraphPad Prism8), data were fitted, and EC50 values were calculated.

Experiment [3] addresses T2, human GUCY2C protein, full length, on …. Put plainly: FACS on 293T-hGUCY2C cells, MFI. As for the experimental part: as §1, with “5-fold” for “3-fold”, “calculated. As shown in A-C in FIG. 14, PF1608-hIgG1 binds strongly to GUCY2C at the protein level, but weakly at the cellular level. The humanized antibodies of the present application are all capable of binding effectively to recombinant cells expressing human GUCY2C protein and substantially maintain the equivalent binding ability of the recombinant antibodies.” for “calculated.”
The source holds these as a separate data set.

The target is the same in experiment [4]. Put plainly: FACS on 293T-hGUCY2C cells, MFI. As for the experimental part: as §1, with “5-fold” for “3-fold”, “calculated. As shown in A-C in FIG. 14, PF1608-hIgG1 binds strongly to GUCY2C at the protein level, but weakly at the cellular level. The humanized antibodies of the present application are all capable of binding effectively to recombinant cells expressing human GUCY2C protein and substantially maintain the equivalent binding ability of the recombinant antibodies.” for “calculated.”
This is another data set of the same source.

The target is the same in experiment [5]. Put plainly: FACS on 293T-hGUCY2C cells, MFI. The procedure: as §1, with “5-fold” for “3-fold”, “calculated. As shown in A-C in FIG. 14, PF1608-hIgG1 binds strongly to GUCY2C at the protein level, but weakly at the cellular level. The humanized antibodies of the present application are all capable of binding effectively to recombinant cells expressing human GUCY2C protein and substantially maintain the equivalent binding ability of the recombinant antibodies.” for “calculated.”
This is another data set of the same source.

Experiment [6] has the same target. Put plainly: FACS on HT55 tumor cells (endogenous GUCY2C), MFI. The procedure: as §1
The binding of the recombinant antibody to the endogenous tumor cell HT55 was detected in the same manner.

For experiment [7] the target is unchanged. Put plainly: FACS on HT55 tumor cells (endogenous GUCY2C), MFI. This is another data set of the same source.
Experiment [8] shares this target. Put plainly: FACS on HT55 tumor cells (endogenous GUCY2C), MFI. This is another data set of the same source.
Experiment [9] shares this target. Put plainly: FACS on HT55 tumor cells (endogenous GUCY2C), MFI. The source holds these as a separate data set.

T2 sequence (P25092 24-1073): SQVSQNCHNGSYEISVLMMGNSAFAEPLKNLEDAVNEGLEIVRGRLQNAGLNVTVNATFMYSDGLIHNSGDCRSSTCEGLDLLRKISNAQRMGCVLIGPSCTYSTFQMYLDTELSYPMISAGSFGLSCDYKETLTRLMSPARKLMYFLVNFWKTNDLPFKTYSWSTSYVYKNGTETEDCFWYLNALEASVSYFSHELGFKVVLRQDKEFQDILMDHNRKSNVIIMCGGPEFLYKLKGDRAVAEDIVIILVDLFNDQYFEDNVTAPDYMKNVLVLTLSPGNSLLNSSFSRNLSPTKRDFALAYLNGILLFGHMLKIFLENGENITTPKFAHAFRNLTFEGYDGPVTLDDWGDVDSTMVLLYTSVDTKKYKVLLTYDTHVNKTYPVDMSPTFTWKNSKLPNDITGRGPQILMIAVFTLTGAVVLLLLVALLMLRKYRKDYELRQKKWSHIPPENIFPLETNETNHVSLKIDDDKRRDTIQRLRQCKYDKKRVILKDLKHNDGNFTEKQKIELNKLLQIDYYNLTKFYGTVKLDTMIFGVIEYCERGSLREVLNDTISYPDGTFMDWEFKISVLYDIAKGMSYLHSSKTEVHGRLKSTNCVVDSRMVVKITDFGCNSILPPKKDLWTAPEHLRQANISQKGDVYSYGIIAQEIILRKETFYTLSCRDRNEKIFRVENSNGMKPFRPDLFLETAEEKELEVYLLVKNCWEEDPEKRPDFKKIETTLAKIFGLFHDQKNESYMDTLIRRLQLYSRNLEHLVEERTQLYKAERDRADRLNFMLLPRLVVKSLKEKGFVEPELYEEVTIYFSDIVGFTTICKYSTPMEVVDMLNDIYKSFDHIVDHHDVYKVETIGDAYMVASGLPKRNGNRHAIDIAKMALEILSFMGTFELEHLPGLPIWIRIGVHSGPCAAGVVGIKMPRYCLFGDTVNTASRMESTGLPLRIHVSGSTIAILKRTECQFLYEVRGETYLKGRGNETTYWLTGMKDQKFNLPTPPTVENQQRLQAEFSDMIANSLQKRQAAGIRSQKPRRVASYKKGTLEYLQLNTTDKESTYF

B1: PF1608-hIgG1 (antibody, V domains shown)
VH: EVQLVESGGGLVQPGGSLRLSCAASGFTFSSYWMHWVRQAPGKGLEWIGEIKPSNELTNVHEKFKDRFTISVDKAKNSAYLQMNSLRAEDTAVYYCTRTITTTEGYWFFDVWGQGTLVTVSS
VL: DIQLTQSPSSLSASVGDRVTITCRASESVDYYGSSLLQWYQQKPGKAPKLLIYAASKLASGVPSRFSGSGSGTDFTLTISSLQPEDFATYYCQQTRKAYTFGQGTKLEIKR
notes: also called PF1608-hlgG1; positive control antibody
Broadly, the EC50 (read off the curve) is the concentration needed to bring the measured effect to its halfway point. Turning to B1, the “EC50 (read off the curve)” value in [1] was around 60 pM.

B2: 5F9-hIgG1 (antibody, V domains shown)
VH: QVQLQQWGAGLLKPSETLSLTCAVFGGSFSGYYWSWIRQPPGKGLEWIGEINHRGNTNDNPSLKSRVTISVDTSKNQFALKLSSVTAADTAVYYCARERGYTYGNFDHWGQGTLVTVSS
VL: EIVMTQSPATLSVSPGERATLSCRASQSVSRNLAWYQQKPGQAPRLLIYGASTRATGIPARFSGSGSGTEFTLTIGSLQSEDFAVYYCQQYKTWPRTFGQGTNVEIKR
notes: also called positive control antibody
In the case of B2, the “EC50 (read off the curve)” value in experiment [2] was around 900 pM; in [3] it was around 1000 pM; in experiment [4], around 1000 pM; in experiment [5], around 1000 pM; in [6] it was around 300 pM; in [1] it was around 40 pM. In addition, the “EC50 (read off the curve)” value in experiment [7], in [8] and in experiment [9] was around 300 pM throughout.

(Values after US20250075006A1 (SHANDONG SIMCERE BIOPHARMACEUTICAL, published 2025).)
